{"source": "patent US20150344570A1", "about": "(published 2015)", "binders": {"B1": {"name": "GpH7-A5/GpH7-B3 variant P331_10E/GpL16-k0 (antibody, human IgG1, kappa)", "heavy 1": "not shown", "heavy 2": "not shown", "light": "DIVMTQSPLSLPVTPGEPASISCQASESLVHSNRNTYLHWYLQKPGQSPQLLIYKVSNRFSGVPDRFSGSGSGTDFTLKISRVEAEDVGVYYCSQNTHVPPTFGQGTKVEIERTVAAPSVFIFPPSDEQLKSGTASVVCLLNNFYPREAKVQWKVDNALQSGNSQESVTEQDSKDSTYSLSSTLTLSKADYEKHKVYACEVTHQGLSSPVTKSFNRGEC", "notes": "mutation in the GpH7-B3 chain only; also called He Ab"}, "B2": {"name": "GpH7-A5/GpH7-B3 variant A330_03V/GpL16-k0 (antibody, human IgG1, kappa)", "heavy 1": "not shown", "heavy 2": "not shown", "light": "DIVMTQSPLSLPVTPGEPASISCQASESLVHSNRNTYLHWYLQKPGQSPQLLIYKVSNRFSGVPDRFSGSGSGTDFTLKISRVEAEDVGVYYCSQNTHVPPTFGQGTKVEIERTVAAPSVFIFPPSDEQLKSGTASVVCLLNNFYPREAKVQWKVDNALQSGNSQESVTEQDSKDSTYSLSSTLTLSKADYEKHKVYACEVTHQGLSSPVTKSFNRGEC", "notes": "also called He Ab"}, "B3": {"name": "GpH7-A5/GpH7-B3 variant P331_07I/GpL16-k0 (antibody, human IgG1, kappa)", "heavy 1": "not shown", "heavy 2": "not shown", "light": "DIVMTQSPLSLPVTPGEPASISCQASESLVHSNRNTYLHWYLQKPGQSPQLLIYKVSNRFSGVPDRFSGSGSGTDFTLKISRVEAEDVGVYYCSQNTHVPPTFGQGTKVEIERTVAAPSVFIFPPSDEQLKSGTASVVCLLNNFYPREAKVQWKVDNALQSGNSQESVTEQDSKDSTYSLSSTLTLSKADYEKHKVYACEVTHQGLSSPVTKSFNRGEC", "notes": "as for B1"}, "B4": {"name": "GpH7-A5/GpH7-B3 variant A330_08L/GpL16-k0 (antibody, human IgG1, kappa)", "heavy 1": "not shown", "heavy 2": "not shown", "light": "DIVMTQSPLSLPVTPGEPASISCQASESLVHSNRNTYLHWYLQKPGQSPQLLIYKVSNRFSGVPDRFSGSGSGTDFTLKISRVEAEDVGVYYCSQNTHVPPTFGQGTKVEIERTVAAPSVFIFPPSDEQLKSGTASVVCLLNNFYPREAKVQWKVDNALQSGNSQESVTEQDSKDSTYSLSSTLTLSKADYEKHKVYACEVTHQGLSSPVTKSFNRGEC", "notes": "also called He Ab"}, "B5": {"name": "GpH7-A5/GpH7-B3 variant P331_20W/GpL16-k0 (antibody, human IgG1, kappa)", "heavy 1": "not shown", "heavy 2": "not shown", "light": "DIVMTQSPLSLPVTPGEPASISCQASESLVHSNRNTYLHWYLQKPGQSPQLLIYKVSNRFSGVPDRFSGSGSGTDFTLKISRVEAEDVGVYYCSQNTHVPPTFGQGTKVEIERTVAAPSVFIFPPSDEQLKSGTASVVCLLNNFYPREAKVQWKVDNALQSGNSQESVTEQDSKDSTYSLSSTLTLSKADYEKHKVYACEVTHQGLSSPVTKSFNRGEC", "notes": "as for B1"}, "B6": {"name": "GpH7-A5/GpH7-B3 variant A330_16H/GpL16-k0 (antibody, human IgG1, kappa)", "heavy 1": "not shown", "heavy 2": "not shown", "light": "DIVMTQSPLSLPVTPGEPASISCQASESLVHSNRNTYLHWYLQKPGQSPQLLIYKVSNRFSGVPDRFSGSGSGTDFTLKISRVEAEDVGVYYCSQNTHVPPTFGQGTKVEIERTVAAPSVFIFPPSDEQLKSGTASVVCLLNNFYPREAKVQWKVDNALQSGNSQESVTEQDSKDSTYSLSSTLTLSKADYEKHKVYACEVTHQGLSSPVTKSFNRGEC", "notes": "also called He Ab"}, "B7": {"name": "GpH7-A5/GpH7-B3 variant A330_06M/GpL16-k0 (antibody, human IgG1, kappa)", "heavy 1": "not shown", "heavy 2": "not shown", "light": "DIVMTQSPLSLPVTPGEPASISCQASESLVHSNRNTYLHWYLQKPGQSPQLLIYKVSNRFSGVPDRFSGSGSGTDFTLKISRVEAEDVGVYYCSQNTHVPPTFGQGTKVEIERTVAAPSVFIFPPSDEQLKSGTASVVCLLNNFYPREAKVQWKVDNALQSGNSQESVTEQDSKDSTYSLSSTLTLSKADYEKHKVYACEVTHQGLSSPVTKSFNRGEC", "notes": "also called He Ab"}, "B8": {"name": "GpH7-A5/GpH7-B3 variant A330_20W/GpL16-k0 (antibody, human IgG1, kappa)", "heavy 1": "not shown", "heavy 2": "not shown", "light": "DIVMTQSPLSLPVTPGEPASISCQASESLVHSNRNTYLHWYLQKPGQSPQLLIYKVSNRFSGVPDRFSGSGSGTDFTLKISRVEAEDVGVYYCSQNTHVPPTFGQGTKVEIERTVAAPSVFIFPPSDEQLKSGTASVVCLLNNFYPREAKVQWKVDNALQSGNSQESVTEQDSKDSTYSLSSTLTLSKADYEKHKVYACEVTHQGLSSPVTKSFNRGEC", "notes": "also called He Ab"}, "B9": {"name": "GpH7-A5/GpH7-B3 variant P331_15Y/GpL16-k0 (antibody, human IgG1, kappa)", "heavy 1": "not shown", "heavy 2": "not shown", "light": "DIVMTQSPLSLPVTPGEPASISCQASESLVHSNRNTYLHWYLQKPGQSPQLLIYKVSNRFSGVPDRFSGSGSGTDFTLKISRVEAEDVGVYYCSQNTHVPPTFGQGTKVEIERTVAAPSVFIFPPSDEQLKSGTASVVCLLNNFYPREAKVQWKVDNALQSGNSQESVTEQDSKDSTYSLSSTLTLSKADYEKHKVYACEVTHQGLSSPVTKSFNRGEC", "notes": "as for B1"}}, "key": {"FcγRIIIa": {"target": "T1, FcγRIIIa (human, UniProt P08637 17-208)", "T1 construct": "extracellular domain; also called FcgRIIIa; 3a", "T1 sequence (P08637 17-208)": "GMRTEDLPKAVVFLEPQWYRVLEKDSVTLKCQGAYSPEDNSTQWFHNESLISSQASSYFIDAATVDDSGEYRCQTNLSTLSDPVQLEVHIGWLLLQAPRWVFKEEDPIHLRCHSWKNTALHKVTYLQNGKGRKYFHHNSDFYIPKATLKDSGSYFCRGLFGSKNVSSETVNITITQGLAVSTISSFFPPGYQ", "assay": "SPR (Biacore), relative binding"}, "FcγRIIb": {"target": "T2, FcγRIIb (human, UniProt P31994 43-217)", "T2 construct": "extracellular domain; also called FcgRIIb; 2b", "T2 sequence (looked up)": "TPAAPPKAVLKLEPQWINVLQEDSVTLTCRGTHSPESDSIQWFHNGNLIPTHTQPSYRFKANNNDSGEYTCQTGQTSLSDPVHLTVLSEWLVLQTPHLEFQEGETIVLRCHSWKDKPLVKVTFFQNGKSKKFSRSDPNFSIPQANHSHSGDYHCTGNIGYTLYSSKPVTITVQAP", "assay": "SPR (Biacore), relative binding"}, "[1]": {"target": "T3, FcγRIIIa extracellular domain with C-terminal His tag (human, UniProt P08637 17-208)", "T3 construct": "extracellular domain; also called 3a; FcgRIIIa", "T3 sequence (P08637 17-208)": "as the sequence (P08637 17-208) above", "assay": "SPR, binding relative to GpH7-A5/GpH7-B3/GpL16-k0 = 100", "experimental": "(§1) The heterodimerized antibodies He Abs in which one of the H chains was introduced with an alteration were assayed for their binding activities to each activating FcγR and inhibitory FcγR according to the method described in Example 4. […] The activating FcγRs in FIGS. 26, 27, 28, and 29 are FcγRIa, FcγRIIa (R), FcγRIIa (H), and FcγRIIIa, respectively.\n(§2) Analysis of interaction between objective antibody and the FcγR was carried out using Biacore T100 (GE Healthcare). HBS-EP+ (GE Healthcare) was used as the running buffer, and the measurement temperature was set to 25° C. Chips produced by immobilizing the antigen peptide by the amine coupling method to a Series S Sencor Chip CM5 (GE Healthcare), or alternatively, chips produced by allowing preliminarily biotinylated antigen peptides to interact with and immobilize onto a Series S Sensor Chip SA (certified) (GE Healthcare) were used. Antibodies of interest were captured onto an antigen peptide-immobilized chip, and allowed to interact to each FcγR diluted with running buffer. To regenerate and repeatedly use the chip, the antibodies captured on the chip were washed off by reacting 10 mM glycine-HCl, pH 1.5."}, "[2]": {"target": "T4, FcγRIIb extracellular domain with C-terminal His tag (human, UniProt P31994 43-217)", "T4 construct": "extracellular domain; also called 2b; FcgRIIb", "T4 sequence (looked up)": "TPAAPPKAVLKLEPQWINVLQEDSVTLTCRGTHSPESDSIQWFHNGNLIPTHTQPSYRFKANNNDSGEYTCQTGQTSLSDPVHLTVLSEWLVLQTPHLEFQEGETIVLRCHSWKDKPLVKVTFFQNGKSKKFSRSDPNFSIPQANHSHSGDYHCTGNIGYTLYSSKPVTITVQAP", "assay": "SPR, binding relative to GpH7-A5/GpH7-B3/GpL16-k0 = 100", "experimental": "as §1, §2"}}, "data": [{"binder": "B1", "values": [{"measurement": "He/Con_3a", "setting": "FcγRIIIa", "result": "75.1 % of GpH7-A5/GpH7-B3/GpL16-k0"}, {"measurement": "He/Con_2b", "setting": "FcγRIIb", "result": "116 % of GpH7-A5/GpH7-B3/GpL16-k0"}]}, {"binder": "B2", "values": [{"measurement": "He/Con_3a", "setting": "[1]", "result": "101 % of control"}, {"measurement": "He/Con_2b", "setting": "[2]", "result": "52.4 % of control"}]}, {"binder": "B3", "values": [{"measurement": "He/Con_3a", "setting": "FcγRIIIa", "result": "66 % of GpH7-A5/GpH7-B3/GpL16-k0"}, {"measurement": "He/Con_2b", "setting": "FcγRIIb", "result": "114 % of GpH7-A5/GpH7-B3/GpL16-k0"}]}, {"binder": "B4", "values": [{"measurement": "He/Con_3a", "setting": "[1]", "result": "124 % of control"}, {"measurement": "He/Con_2b", "setting": "[2]", "result": "70.5 % of control"}]}, {"binder": "B5", "values": [{"measurement": "He/Con_3a", "setting": "FcγRIIIa", "result": "78.6 % of GpH7-A5/GpH7-B3/GpL16-k0"}, {"measurement": "He/Con_2b", "setting": "FcγRIIb", "result": "111 % of GpH7-A5/GpH7-B3/GpL16-k0"}]}, {"binder": "B6", "values": [{"measurement": "He/Con_3a", "setting": "[1]", "result": "104 % of control"}, {"measurement": "He/Con_2b", "setting": "[2]", "result": "87.6 % of control"}]}, {"binder": "B7", "values": [{"measurement": "He/Con_3a", "setting": "[1]", "result": "142 % of control"}, {"measurement": "He/Con_2b", "setting": "[2]", "result": "80.5 % of control"}]}, {"binder": "B8", "values": [{"measurement": "He/Con_3a", "setting": "[1]", "result": "104 % of control"}, {"measurement": "He/Con_2b", "setting": "[2]", "result": "76.1 % of control"}]}, {"binder": "B9", "values": [{"measurement": "He/Con_3a", "setting": "FcγRIIIa", "result": "81.9 % of GpH7-A5/GpH7-B3/GpL16-k0"}, {"measurement": "He/Con_2b", "setting": "FcγRIIb", "result": "114 % of GpH7-A5/GpH7-B3/GpL16-k0"}]}]}
